# Results as given in patent publication US20230295310A1 (ABCELLERA BIOLOGICS, published 2023).
# What was measured:
# [1] = target: T1, human CD3 expressed on cells (human, UniProt P07766 23-207; P04234 22-171; P09693 23-182); assay: flow cytometry, 25 nM
# T1 construct: whole, on cells; CD3 complex on Jurkat cells and on human primary T cells
# Procedure, shortened: (§1)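 Values are fold over isotype: median fluorescence intensity of each antibody relative to isotype control after a 30-minute, 4° C incubation at 25 nM with CD3-bearing cells in PBS containing 2% FBS.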
# [2] = target: T2, cynomolgus monkey CD3 expressed on primary T cells (cynomolgus monkey, UniProt Q95LI5 22-198; Q95LI8 22-171; Q95LI7 23-181); assay: flow cytometry, 25 nM
# T2 construct: whole, on cells; CD3 complex on purified cynomolgus monkey T cells; also called cyno CD3
# Procedure, shortened: as §1
# [3] = target: T3, cynomolgus monkey CD3 expressed on cyno primary T cells (cynomolgus monkey, UniProt Q95LI5 22-198; Q95LI8 22-171; Q95LI7 23-181); assay: flow cytometry, 25 nM, cyno primary T cells
# T3 construct: whole, on cells; CD3 complex on purified cynomolgus monkey CD3 pan T cells; also called cyno CD3
# Procedure, shortened: as §1
# [4] = target: T4, human CD3 expressed on cells (Jurkat cells; human primary T cells) (human, UniProt P07766 23-207; P04234 22-171; P09693 23-182); assay: flow cytometry, 25 nM, human primary T cells
# T4 construct: whole, on cells
# Procedure, shortened: as §1
# [5] = target: T4, human CD3 expressed on cells (Jurkat …); assay: flow cytometry, 25 nM, Jurkat cells
# Procedure, shortened: as §1
# human CD3 = target: T5, human CD3 (human, UniProt P07766 23-207; P04234 22-171; P09693 23-182); assay: flow cytometry, Jurkat cells
# T5 construct: whole, on cells; also called CD3 on Jurkat cells; CD3 on human primary T cells
# Procedure, shortened: as §1
# cynomolgus monkey CD3 = target: T6, cynomolgus monkey CD3 (cynomolgus monkey, UniProt Q95LI5 22-198; Q95LI8 22-171; Q95LI7 23-181); assay: flow cytometry, cyno primary T cells
# T6 construct: whole, on cells; CD3 on purified cynomolgus monkey CD3 pan T cells; also called cyno CD3; CD3 on cyno primary T cells
# Procedure, shortened: as §1
# T6 sequence (Q95LI5 22-198, chain 1 of 3): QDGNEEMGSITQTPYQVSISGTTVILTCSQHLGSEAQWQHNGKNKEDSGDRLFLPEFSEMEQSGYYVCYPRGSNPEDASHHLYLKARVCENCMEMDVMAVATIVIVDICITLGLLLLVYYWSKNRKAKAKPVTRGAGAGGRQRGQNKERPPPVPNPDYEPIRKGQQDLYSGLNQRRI
# T6 sequence (Q95LI8 22-171, chain 2 of 3): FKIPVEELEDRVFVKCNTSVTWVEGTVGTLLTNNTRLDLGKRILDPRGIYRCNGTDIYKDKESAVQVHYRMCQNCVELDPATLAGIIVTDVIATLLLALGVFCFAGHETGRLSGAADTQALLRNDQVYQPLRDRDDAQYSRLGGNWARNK
# T6 sequence (Q95LI7 23-181, chain 3 of 3): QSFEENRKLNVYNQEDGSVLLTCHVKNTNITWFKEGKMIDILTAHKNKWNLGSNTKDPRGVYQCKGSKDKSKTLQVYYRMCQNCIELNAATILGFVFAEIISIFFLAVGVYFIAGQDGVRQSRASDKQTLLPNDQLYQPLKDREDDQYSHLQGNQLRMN
# T2 sequence (Q95LI5 22-198, chain 1 of 3): as the sequence (Q95LI5 22-198, chain 1 of 3) above
# T2 sequence (Q95LI8 22-171, chain 2 of 3): as the sequence (Q95LI8 22-171, chain 2 of 3) above
# T2 sequence (Q95LI7 23-181, chain 3 of 3): as the sequence (Q95LI7 23-181, chain 3 of 3) above
# T3 sequence (Q95LI5 22-198, chain 1 of 3): as the sequence (Q95LI5 22-198, chain 1 of 3) above
# T3 sequence (Q95LI8 22-171, chain 2 of 3): as the sequence (Q95LI8 22-171, chain 2 of 3) above
# T3 sequence (Q95LI7 23-181, chain 3 of 3): as the sequence (Q95LI7 23-181, chain 3 of 3) above
# T1 sequence (P07766 23-207, chain 1 of 3): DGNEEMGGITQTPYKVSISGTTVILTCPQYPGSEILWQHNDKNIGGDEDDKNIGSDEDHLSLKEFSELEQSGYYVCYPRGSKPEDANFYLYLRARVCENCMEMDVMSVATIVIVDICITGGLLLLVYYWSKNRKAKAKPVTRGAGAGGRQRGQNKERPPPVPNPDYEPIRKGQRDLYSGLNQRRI
# T1 sequence (P04234 22-171, chain 2 of 3): as the sequence (Q95LI8 22-171, chain 2 of 3) above, with V5I, K15N, V20I, T32S, N33D, N34I, A64T, N74S, L83V, R141H counted along it
# T1 sequence (P09693 23-182, chain 3 of 3): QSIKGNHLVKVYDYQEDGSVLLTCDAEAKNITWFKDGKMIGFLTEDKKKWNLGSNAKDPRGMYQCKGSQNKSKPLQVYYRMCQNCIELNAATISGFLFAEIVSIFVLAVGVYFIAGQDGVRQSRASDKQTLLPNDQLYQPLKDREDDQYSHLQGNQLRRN
# T5 sequence (P07766 23-207, chain 1 of 3): as the sequence (P07766 23-207, chain 1 of 3) above
# T5 sequence (P04234 22-171, chain 2 of 3): as the sequence (Q95LI8 22-171, chain 2 of 3) above, with V5I, K15N, V20I, T32S, N33D, N34I, A64T, N74S, L83V, R141H counted along it
# T5 sequence (P09693 23-182, chain 3 of 3): as the sequence (P09693 23-182, chain 3 of 3) above
# T4 sequence (P07766 23-207, chain 1 of 3): as the sequence (P07766 23-207, chain 1 of 3) above
# T4 sequence (P04234 22-171, chain 2 of 3): as the sequence (Q95LI8 22-171, chain 2 of 3) above, with V5I, K15N, V20I, T32S, N33D, N34I, A64T, N74S, L83V, R141H counted along it
# T4 sequence (P09693 23-182, chain 3 of 3): as the sequence (P09693 23-182, chain 3 of 3) above
Binder,Human primary T Cell Binding (FOI) [1],Jurkat Cell Binding (FOI) [1],Cyno primary T Cell Binding (FOI) [2],binding result (human CD3),binding result (cynomolgus monkey CD3),also measured
"mAb 78 (antibody, V domains shown) VH: EVQLVESGGGLVQPGGSLRLSCAASGFTFSSYWMSWVRQAPGKGLEWVANIKQDGSEKYYVDSVKGRFTISRDNAKNSLYLQMNSLRAEDTAVYYCARDNSPSFYWYFDLWGRGTLVTVSS VL: DIQMTQSPSTLSASVGDRVTITCRASQSLSRWLAWYQQKPGKAPKLLIYKASSLESGVPSRFSGSGSGTEFTLTISSLQPDDFATYYCQQYYTYSRTFGQGTKVEIK",116 FOI,104 FOI,41.6 FOI,,,
"mAb 158 (antibody, V domains shown) VH: EVQLVESGGGLVQPGRSLRLSCAASGFTFADYTMHWVRQVPGKGLEWVSGISWNSGSVDYADSVKGRFTISRDNAKKTLYLQMNSLRAEDTALYYCAKDSSGYGHYYFYYLDVWGKGTTVTVSS VL: EIVMTQSPATLSVSPGERATLSCRATQSVSSNLAWYQQKPGQAPRLLIYSTSTRATGIPARFSGSRSGTEFTLTISSLQSEDSAVYYCQQYNNWPHFGQGTRLEIK",164 FOI,117 FOI,10.9 FOI,,,
"mAb 171 (antibody, V domains shown, VH/VL only) VH: EVQLVESGGGLVQPGRSLRLSCAASGFTFADYTMHWVRQAPGQGLEWVSGISWNSGSIDYADSVKGRFIISRDNAKKTLYLQMNSLRAEDTALYYCAKDSSGYGHYYFYYLDVWGKGTTVTVSS VL: EIVMTQSPATLSVSPGERATLSCRASQSVSSNLAWYQQKPGQAPRLLIYSTSTRATGIPARFSGSRSGTEFTLTISSLQSEDSAVYYCQQYNNWPHFGQGTRLEIK",,,,,,Binding (FOI) [3]: 20.1 FOI; Binding (FOI) [4]: 165 FOI; Binding (FOI) [5]: 108 FOI
"mAb 121 (antibody, V domains shown) VH: EVQLVESGGGLVQPGRSLRLSCATSGFTFADYTMHWVRQAPGKGLEWVSGISWNSGSIDYADSVKGRFTISRDNAKKSLYLQMNSLRAEDTALYFCAKDSSGYGHYYFYYLDVWGKGTTVTVSS VL: EIVMTQSPGTLSVSPGKRATLSCRASQSVSSNLAWYQQKPGQGPRLLIYSTSTRATGIPARFSGSGSGTEFTLTISSLQSEDSAVYYCQHYNNWPHFGQGTRLEIK",101 FOI,101 FOI,12.2 FOI,,,
"mAb 310 (antibody, V domains shown, VH and VL only) VH: QVQLVESGGGVVQPGRSLRLSCAASGFTFRSYGMHWVRQAPGKGLEWVTIIWYDGSKKYYADSVRGRFTISRDNSKNMLYLQMNSLRAEDTAVYYCASQEFNWNDGGFYYMDVWGKGTTVTVSS VL: DIQLTQSPSFLSASVGDRVTITCRASQDISSYLHWCQQKPGKAPKLLIYGASTLQSGVPSRFSGSGSGKEFTLTISSLQPEDFATYYCQQLDNYPPTFGGGTKVEIK",,,,no binding (tested: FOI ≥10 = positive; 25 nM),no binding (tested: FOI ≥10 = positive; 25 nM),
"mAb 180 (antibody, V domains shown, VH/VL only) VH: EVNLVESGGGLVQPGRSLRLSCAASGFTFDDYTMHWVRQVPGKGLEWVSNISWNSGSLGYADSVKGRFTISRDNAKDSLYLQMNSLRVEDTALYYCAKDSSGYGHYNSYYMDVWGKGTTVTVSS VL: DIQMTQSPSSLSASVGDRVTITCRASQSIRNYLNWYQQKPGKAPKVLIYSASSLQSGVPSRFSGSGSGTDFTLTISSLQPEDFASFYCQQTYSTPITFGQGTRLEIK",,,,,,Binding (FOI) [3]: 90.2 FOI
"mAb 176 (antibody, V domains shown, VH/VL only) VH: EVELVESGGGLVQPGRSLRLSCAASGFKFDDYTMHWVRLPPGKGLEWVSGISWNSGTIDYGDSVKGRFTISRDNAKNSLYLQMNSLRVEDTALYYCAKDTSGYGHYFYYYMDVWGKGTTVTVSS VL: DIQMTQSPSSLSASIGDRVSITCRTSQIINNYLNWYQQKPGKAPKVLIYSASSLQSGVPSRFSGSGSGTDFTLTINSLQPEDFATYYCQQSYNFPITFGQGTRLELK",,,,,,Binding (FOI) [3]: 34 FOI; Binding (FOI) [4]: 147 FOI; Binding (FOI) [5]: 114 FOI
"mAb 69 (antibody, V domains shown) VH: QMLLVESGGGVVQPGRSLTLSCAASGFTFRSYGMHWVRQAPGRGLEWVAIIWYDGSTEYYADSVKGRFTISRANSKNMLYLQMNSLRAEDTAVYYCAAFDYTNSFDIWGQGTMVTVSS VL: DIVVTQTPLSSPVTLGQPASISCRSSQRFVHSDGNTYLSWLQQRPGQPPRLLIYKISNRISGVPDRFSGSGAGTDFKLKISRVEAEDVGIYYCMQATQFPYTFGQGTKLEIK",123 FOI,145 FOI,245 FOI,,,
"mAb 70 (antibody, V domains shown) VH: QGQLVESGGGVVQPGRSLRLSCEASGFTFRSYGMHWVRQPPGKGLEWVAIIWYDGGKKYYGDSVKGRFTISRDNPKNTLYLQMNSLRPEDTAVYYCMAYDYSNGFDIWGQGTMVTVSS VL: DIVMTQTPLSSPVTLGQPASISCRSSQSFVHSDGSTYLSWLQQRPGQPPRLLIYKISNRFSGVPDRFSGRGAGTDFTLKISRVEAEDVGIYYCMQNTQFPYTFGQGTKLEIK",131 FOI,140 FOI,238 FOI,,,
"mAb 324 (antibody, V domains shown) VH: QVQVVQSGAEVKKPGASVKVSCKTSGYTFTDYYIHWVRQAPGQGLEWMGWIYPKSGRTDNAQNFKGRVAMTRDTSINTAYLELNRLRSDDTAIYYCARLEELVFDYWGQGTLVTVSS VL: DIQMTQSPSSVSASVGDRVTITCRASQVISRWLAWYQLKPGKAPKLLIYEASSLQSWVPSRFSGSGSGTDFTLTISSLQPEDFATYYCQQANSFPWTFGQGTKVEIK",,,,no binding (tested: FOI ≥10 = positive; 25 nM),no binding (tested: FOI ≥10 = positive; 25 nM),
"mAb 325 (antibody, V domains shown) VH: QVQVVQSGAEVKKPGASVKVSCKTSGYTFTDQYIHWVRQAPGQGLEWMGWIYPKSGRTDNAQKFKGRVAMTRDTSINTAYMELSSLRSDDTATYYCARLEELVFDYWGQGTLVTVSS VL: not shown",,,,no binding (tested: FOI ≥10 = positive; 25 nM),no binding (tested: FOI ≥10 = positive; 25 nM),
"mAb 323 (antibody, V domains shown, VH and VL only) VH: QVQVVQSGAEVKNPGASVKVSCKASGYTFTGYYMHWVRQAPGQGLEWMGWIYPNSGRTNYAQKFQGRVTMTRDTSISTAYMELSRLRSDDTAVYYCARLEQLVFDYWGQGTLVTVSS VL: not shown",,,,no binding (tested: FOI ≥10 = positive; 25 nM),no binding (tested: FOI ≥10 = positive; 25 nM),
"mAb 294 (antibody, V domains shown, VH and VL only) VH: EVQLLESGGGLVQPGGSLRLSCAASGFTFSSSVMSWVRQGPGKGLEWVSAIRGSGVYTYYADSVKGRFTISRDNSKNTLYLQMNSLRAEDTAVYYCAKKYSYYYYYMDVWGKGTTVTVSS VL: PYELTQPLSVSVALGQTARITCGGNNIGSKDVHWYQQKPGQAPVLVIYRDSNRPSGIPERFSGSNSGNTATLTISRAQAGDEADYYCQVWDSSTAVFGGGTQLTAL",,,,no binding (tested: FOI ≥10 = positive; 25 nM),no binding (tested: FOI ≥10 = positive; 25 nM),
"mAb 312 (antibody, V domains shown, VH and VL only) VH: EGQLLESGGGLVQPGGSLRLSCAASGFTFSRYAMSWIRQAPGKGLEWVSVINGSGGDKNYADSVKGRFTISRDNSKNSLYLLMNGLRVEDTAIYFCAKKFSYYYYYMDVWGKGTSVTVSS VL: SYELTQPLSVSVALGQTARITCGGNNIGSKNVHWHQQKPGQAPVLVIYRESNRPSGIPGRFSGSNSGNTATLTSSRAQAGDEADYYCQVWDSSTAVFGGGTQLTAL",,,,no binding (tested: FOI ≥10 = positive; 25 nM),no binding (tested: FOI ≥10 = positive; 25 nM),
"mAb 311 (antibody, V domains shown, VH and VL only) VH: EVQLLESGGGLVQPGGSRRLSCAASGFTFSSYAMSWVRQAPGKGLEWVSVINTRGDITSYADSVKGRFTISRDNSKNTLYLQMNSLRAEDTAVYYCAKKYSYYYYYMDVWGKGTTVTVSS VL: SYELTQPLSVSVALGQTARITCGGNNIGSKNVHWHQQKPGQAPVLVIYRESNRPSGIPERFSGSNSGNTATLTSSRAQAGDEADYYCQVWDSSTAVFGGGTQLTAL",,,,no binding (tested: FOI ≥10 = positive; 25 nM),no binding (tested: FOI ≥10 = positive; 25 nM),
"mAb 319 (antibody, V domains shown, VH and VL only) VH: EVQLLESGGGLLQPGGSRRLSCAATEFTFRSYAMSWVRQSPGKGLEWVSVISGRGDNTYYADSVKGRFTISRDNSKNTLYLQMNSLRAEDTAVYYCAKMYSYYYYYMDVWGKGTTVTVSS VL: SYELTQPLSVSVALGQTARITCGGNNIGSKNVHWHQQKPGQAPVLVIYRESNRPSGIPERFSGSNSGNTATLTSSRAQAGDEADYYCQVWDSSTAVFGGGTQLTAL",,,,no binding (tested: FOI ≥10 = positive; 25 nM),no binding (tested: FOI ≥10 = positive; 25 nM),
"mAb 153 (antibody, V domains shown) VH: QVQLVESGGGVVQPGRSLRLSCAASGFTFSTYGMHWVRQAPGKGLEWVAVIWYDGSHKYYSDSVKGRFTISRDNSKNTLYLQMNSLRVEDTAIYYCARTGITGTTAYFYFDSWGQGTLVTVSS VL: not shown",262 FOI,98.5 FOI,26.1 FOI,,,
